Laboratory results taken from US20240190987A1, “Engineered EpCam Binding Antibodies” (TigaTX, priority 2021, published 2024).
Residue numbers refer to the chain shown, from its start. Names and notes keep the numbering of the source.

Tests used:
LS2A R3M1 (Ab0786) = experiment: BLI binding of LS2B variants to LS2A R3M1 (Ab0786) with indinavir; details: for binding to LS2A clones (FIG. 17): biotinylated Ab0785 (R2M34) or Ab0786 (R3M1) captured, indinavir present
Method: Binding kinetics were measured by biolayer interferometry (BLI). Biotinylated-Ab0785 (LS2A R2M34 Fab) or biotinylated-Ab0786 (LS2A R3M1 Fab) was captured by streptavidin biosensors and binding to Ab1071 (LS2B R5M2 Fab), Ab1072 (LS2B R7M1 Fab), and Ab1073 (LS2B R7M2 Fab) was measured in the presence of […].
In R6 of engineering, alanine scanning of clone R4M16 were performed to find improved binding to LS2A R3M2 (Ab0787) and LS2A R3M1 (Ab0786). Variants were screened for binding to LS2A (Ab0223) and LS2A R3M2 (Ab0787) with a single-point kinetic screen.
In R7, combination mutants from R6 were designed to generate further affinity variants. Variants were screened for binding to LS2A Ab0787 and Ab0786 with a single-point kinetic screen. Five-point kinetics was measured for a subset of molecules.
Bio-layer interferometry (BLI) data were measured using an Octet RED384 (ForteBio) instrument. Antigens of interest were immobilized on an AHC biosensor and loaded until a 0.4-0.6-nm signal was achieved. Purified antibodies were used as the analyte premixed with 10 μM Indinavir or 0.05% DMSO vehicle. PBSTB (PBS, pH 7.4, 0.05% Tween-20, 0.2% BSA) was used for all buffers for BLI. Data were analyzed using ForteBio Octet analysis software and kinetic parameters were determined using a 1:1 monovalent binding model.

[1] = Differential scanning fluorimetry (DSF) melting temperature; type: physicochemical
Method: DSF was performed on a LC480 Lightcycler Instrument II (Roche). Purified recombinant protein was diluted to 5 μM in DSF buffer (PBS, pH 7.4, Sypro Orange 5×) with small molecule (10 μM VTX) or vehicle (0.05% DMSO) and then heated with a temperature gradient (0.01° C./s) from 25 to 95° C. Data were continuously acquired at ˜465 nm (excitation) and ˜580 nm (emission). Data was analyzed to generate first derivative curves in which the curve maximum was reported as the melting temperature of the protein.

[2] = thermostability by DSF, Table 26

B1: Ab1071: LS2B R5M2 Fab (antibody, V domains shown)
VH: EVQLVESGGGLVQPGGSLRLSCAASGFDFSSYSIHWVRQAPGKGLEWVASISPYYGSTYYADSVKGRFTISADTSKNTAYLQMNSLRAEDTAVYYCARYYEWYKYDLYAGSLGFDYWGQGTLVTVSS
VL: DIQMTQSPSSLSASVGDRVTITCRASQSVSSAVAWYQQKPGKAPKLLIYSASSLYSGVPSRFSGSRSGTDFTLTISSLQPEDFATYYCQQGGYSLITFGQGTKVEIK
LS2A R3M1 (Ab0786)
  binding to LS2A clones (FIG. 17): weaker binding to LS2A R3M1 compared to LS2A R2M34

B2: Ab1072: LS2B R7M1 Fab (antibody, V domains shown)
VH: B1 VH with S50A
VL: B1 VL
LS2A R3M1 (Ab0786)
  binding to LS2A clones (FIG. 17): improved affinities

B3: Ab1044: LS2B; HC: S50A on Ab0902 (antibody, V domains shown)
VH: B1 VH with S50A
VL: B1 VL
LS2A R3M1 (Ab0786); five-point kinetics, values equal Table 15 column LS2A Ab0786
  Kd: 8.6 nM
[1]; Table 15
  TM (° C.): 78.3 °C

B4: Ab1069: anti-EpCAM T-LITE (CT) antibody, FIGS. 8A-8C, 9C (protein)
light: DIQMTQSPSSLSASVGDRVTITCSASSSVSSGNFHWYQQKPGKAPKLLIYRTSNLASGVPSRFSGSGSGTDYTLTISSLQPEDFATYYCQQWSGYPYTFGQGTKVEIKRTVAAPSVFIFPPSDEQLKSGTASVVCLLNNFYPREAKVQWKVDNALQSGNSQESVTEQDSKDSTYSLSSTLTLSKADYEKHKVYACEVTHQGLSSPVTKSFNRGEC
heavy 1: QVQLVQSGAEVKKPGASVKVSCKASGYTFTSYWMHWVRQHPGQGLEWMGMIHPNSGGTNYAQKFQGRVTMTRDTSTSTVYMELSSLRSEDTAVYYCAMGDYVSRDYWGQGTLVTVSSGGGGSGGGGSGGGGSEIVLTQSPGTLSLSPGERATLSCRASSSVSSSYLHWYQQKPGQAPRLLIYSTSSRATGIPDRFSGSGSGTDFTLTISRLEPEDFAVYYCQQYSGYQFTFGQGTKLEIKGGGGSDKTHTCPPCPAPEAAGGPSVFLFPPKPKDTLMISRTPEVTCVVVDVSHEDPEVKFNWYVDGVEVHNAKTKPREEQYNSTYRVVSVLTVLHQDWLNGKEYKCKVSNKALGAPIEKTISKAKGQPREPMVFDLPPSREEMTKNQVSLWCMVKGFYPSDIAVEWESNGQPENNYKTTPPVLDSDGSFFLYSKLTVDKSRWQQGNVFSCSVMHEALHNHYTQKSLSLSPGKHHHHHH
heavy 2: EVQLVESGGGLVQPGGSLRLSCAASGFTFSNYWMNWVRQAPGKGLEWVAQIRVKSENFATHYADSVKGRFTISRDDSKSTVYLQMNSLRAEDTAVYYCTLYDGFSWGQGTLVTVSSASTKGPSVFPLAPSSKSTSGGTAALGCLVKDYFPEPVTVSWNSGALTSGVHTFPAVLQSSGLYSLSSVVTVPSSSLGTQTYICNVNHKPSNTKVDKKVEPKSCDKTHTCPPCPAPEAAGGPSVFLFPPKPKDTLMISRTPEVTCVVVDVSHEDPEVKFNWYVDGVEVHNAKTKPREEQYNSTYRVVSVLTVLHQDWLNGKEYKCKVSNKALGAPIEKTISKAKGQPREPQVYTLPPIRELMTSNQVSLSCAVKGFYPSDIAVEWESNGQPENNYKTTPPVLDSDGSFFLVSKLTVDKSRWQQGNVFSCSVMHEALHNHYTQKSLSLSPGK
modifications: REGION 1..215: note = Ab1069 Hole LC; REGION 1..478: note = Ab1069 Knob KC; REGION 1..446: note = Ab1069 Hole HC
[1]; thermostability by DSF, Table 27
  TM (° C.): 72.0 °C

B5: Ab0785: LS2A R2M34 Fab, His-Tag, Avi-Tag (antibody, V domains shown)
VH: QVQLVQSGAEVKKPGASVKVSCKASGYTFTSYWMHWVRQHPGQGLEWMGIIHPNSGGTSYAQKFQGRVTMTRDTSTSTVYMELSSLRSEDTAVYYCAMGDYVSRDYWGQGTLVTVSS
VL: EIVLTQSPGTLSLSPGERATLSCRASSSVSSSYLHWYQQKPGQAPRLLIYSTSSRATGIPDRFSGSGSGTDFTLTISRLEPEDFAVYYCQQYSGYQFTFGQGTKLEIK
[1]; Table 19
  TM (° C.): 70.9 °C

B6: Ab0788: LS2A R3M3 Fab, HC: S58N on R2M34 (antibody)
heavy: QVQLVQSGAEVKKPGASVKVSCKASGYTFTSYWMHWVRQHPGQGLEWMGIIHPNSGGTNYAQKFQGRVTMTRDTSTSTVYMELSSLRSEDTAVYYCAMGDYVSRDYWGQGTLVTVSSASTKGPSVFPLAPSSKSTSGGTAALGCLVKDYFPEPVTVSWNSGALTSGVHTFPAVLQSSGLYSLSSVVTVPSSSLGTQTYICNVNHKPSNTKVDKKVEPKSCGGGGSHHHHHHGGGGSGLNDIFEAQKIEWHEG
VL: B5 VL
[1]; Table 19
  TM (° C.): 70.1 °C

B7: Ab0898: humanized LS2A R2M34 (antibody)
heavy: QVQLVQSGAEVKKPGASVKVSCKASGYTFTSYWMHWVRQHPGQGLEWMGIIHPNSGGTSYAQKFQGRVTMTRDTSTSTVYMELSSLRSEDTAVYYCAMGDYVSRDYWGQGTLVTVSSGGGGSGGGGSGGGGSEIVLTQSPGTLSLSPGERATLSCRASSSVSSSYLHWYQQKPGQAPRLLIYSTSSRATGIPDRFSGSGSGTDFTLTISRLEPEDFAVYYCQQYSGYQFTFGQGTKLEIKGGGGSDKTHTCPPCPAPEAAGGPSVFLFPPKPKDTLMISRTPEVTCVVVDVSHEDPEVKFNWYVDGVEVHNAKTKPREEQYNSTYRVVSVLTVLHQDWLNGKEYKCKVSNKALGAPIEKTISKAKGQPREPQVYTLPPSRDELTKNQVSLTCLVKGFYPSDIAVEWESNGQPENNYKTTPPVLDSDGSFFLYSKLTVDKSRWQQGNVFSCSVMHEALHNHYTQKSLSLSPGK
modifications: light chain not cited; REGION 1..472: note = Ab0898 HC
notes: humanized LS2A R2M34
[1]; scFv-Fc format, LS2A R3 (Table 20)
  TM (° C.): 52.5 °C

B8: Ab0775: anti-CD3 binding domain, FIGS. 7A-7C (antibody)
heavy: EVQLVESGGGLVQPGGSLRLSCAASGFTFNTYAMNWVRQAPGKGLEWVGRIRSKYNNYATYYADSVKGRFTISRDDSKSILYLQMNSLRAEDTAVYYCVRHGNFGNSYVSWFAYWGQGTLVTVSSGGGGSGGGGSGGGGSDIQVTQSPSSLSASVGDRVTITCRSSTGAVTTSNYANWVQQKPGKAFKGLIGGTNKRAPGVPSRFSGSLSGDDATLTISSLQPEDFATYYCALWYSNLWVFGQGTKLEIKGGGGSDKTHTCPPCPAPEAAGGPSVFLFPPKPKDTLMISRTPEVTCVVVDVSHEDPEVKFNWYVDGVEVHNAKTKPREEQYNSTYRVVSVLTVLHQDWLNGKEYKCKVSNKALGAPIEKTISKAKGQPREPQVYTLPPSRDELTKNQVSLTCLVKGFYPSDIAVEWESNGQPENNYKTTPPVLDSDGSFFLYSKLTVDKSRWQQGNVFSCSVMHEALHNHYTQKSLSLSPGK
modifications: light chain not cited; REGION 1..482: note = Ab0775 HC
[1]; DSF, hSP34v68 R1 variants (Table 23)
  TM (° C.): 64.1 °C

B9: Ab1018: anti-EpCAM binding domain, FIGS. 8A-8C (antibody, V domains shown)
VH: EVQLVESGGGLVQPGGSLRLSCAASGFTFSNYWMNWVRQAPGKGLEWVAQIRVKSENFATHYADSVKGRFTISRDDSKSTVYLQMNSLRAEDTAVYYCTLYEGFSWGQGTLVTVSS
VL: DIQMTQSPSSLSASVGDRVTITCSASSSVSSGNFHWYQQKPGKAPKLLIYRTSNLASGVPSRFSGSGSGTDYTLTISSLQPEDFATYYCQQWSGYPYTFGQGTKVEIK
[1]; [2]
  TM (° C.): 69.9 °C

B10: Ab1066: anti-EpCAM binding domain, FIGS. 8A-8C (antibody, V domains shown)
VH: B9 VH with E102D, G103A
VL: B9 VL with W92A
[1]; [2]
  TM (° C.): 70.4 °C

B11: Ab1026: anti-EpCAM binding domain, FIGS. 8A-8C (antibody, V domains shown)
VH: B9 VH with E102D
VL: B9 VL with W92A
[1]; [2]
  TM (° C.): 69.1 °C

B12: Ab1020: anti-EpCAM binding domain, FIGS. 8A-8C (antibody, V domains shown)
VH: B9 VH with N35H, E102D
VL: B9 VL
[1]; [2]
  TM (° C.): 68 °C

B13: Ab1065 (antibody, V domains shown)
VH: B9 VH
VL: B9 VL with W92A
[1]; [2]
  TM (° C.): 72.3 °C

B14: Ab1024: anti-EpCAM binding domain, FIGS. 8A-8C (antibody, V domains shown)
VH: B9 VH with A63V, E102D
VL: B9 VL
[1]; [2]
  TM (° C.): 73.2 °C

B15: Ab1022: anti-EpCAM binding domain, FIGS. 8A-8C (antibody, V domains shown)
VH: B9 VH with A40H, E102D
VL: B9 VL
[1]; [2]
  TM (° C.): 69.6 °C
